Test results reported in patent publication US20170291958.

Target: Flag-KRAS

B1: Flag-PIASγ (protein)
chain: MAAELVEAKNMVMSFRVSDLQMLLGFVGRSKSGLKHELVTRALQLVQFDCSPELFKKIKELYETRYAKKNSEPAPQPHRPLDPLTMHSTYDRAGAVPRTPLAGPNIDYPVLYGKYLNGLGRLPAKTLKPEVRLVKLPFFNMLDELLKPTELVPQNNEKLQESPCIFALTPRQVELIRNSRELQPGVKAVQVVLRICYSDTSCPQEDQYPPNIAVKVNHSYCSVPGYYPSNKPGVEPKRPCRPINLTHLMYLSSATNRITVTWGNYGKSYSVALYLVRQLTSSELLQRLKTIGVKHPELCKALVKEKLRLDPDSEIATTGVRVSLICPLVKMRLSVPCRAETCAHLQCFDAVFYLQMNEKKPTWMCPVCDKPAPYDQLIIDGLLSKILSECEDADEIEYLVDGSWCPIRAEKERSCSPQGAILVLGPSDANGLLPAPSVNGSGALGSTGGGGPVGSMENGKPGADVVDLTLDSSSSSEDEEEEEEEEEDEDEEGPRPKRRCPFQKGLVPAC
  KRAS sumoylation (HA-SUMO3 blot of Flag immunoprecipitates): Expression of PIASγ enhanced KRAS sumoylation, which was further stimulated by expression of UBC9 (FIG. 3D)
